Measured values: FireProtDB (doi:10.1073/pnas.84.13.4441)

B1: Tryptophan synthase alpha chain, P0A877 (parent)
chain: MERYESLFAQLKERKEGAFVPFVTLGDPGIEQSLKIIDTLIEAGADALELGIPFSDPLADGPTIQNATLRAFAAGVTPAQCFEMLALIRQKHPTIPIGLLMYANLVFNKGIDEFYAQCEKVGVDSVLVADVPVEESAPFRQAALRHNVAPIFICPPNADDDLLRQIASYGRGYTYLLSRAGVTGAENRAALPLNHLVAKLKEYNAAPPLQGFGISAPDQVKAAIDAGAAGAISGSAIVKIIEQHINEPEKMLAALKVFVQPMKAATRS

Variants of: B1
Settings: Escherichia coli (strain K12), 25 °C, GdnHCl, CD, Potassium phosphate 20 mM, reversible: yes, structure 1WQ5, whole UniProt chain shown

| Variant | ddG of mutation (higher = less stable) (pH 7) [kJ/mol] | unfolding free energy (pH 7) [kJ/mol] | ddG of mutation (higher = less stable) (pH 9) [kJ/mol] | unfolding free energy (pH 9) [kJ/mol] |
| --- | --- | --- | --- | --- |
| MERYESLFAQLKERKEGAFVPFVTLGDPGIEQSLKIIDTLIEAGADALCLGIPFSDPLADGPTIQNATLRAFAAGVTPAQCFEMLALIRQKHPTIPIGLLMYANLVFNKGIDEFYAQCEKVGVDSVLVADVPVEESAPFRQAALRHNVAPIFICPPNADDDLLRQIASYGRGYTYLLSRAGVTGAENRAALPLNHLVAKLKEYNAAPPLQGFGISAPDQVKAAIDAGAAGAISGSAIVKIIEQHINEPEKMLAALKVFVQPMKAATRS [E49C] | -0.0418 | 76 | 0.544 | 74.6 |
| MERYESLFAQLKERKEGAFVPFVTLGDPGIEQSLKIIDTLIEAGADALPLGIPFSDPLADGPTIQNATLRAFAAGVTPAQCFEMLALIRQKHPTIPIGLLMYANLVFNKGIDEFYAQCEKVGVDSVLVADVPVEESAPFRQAALRHNVAPIFICPPNADDDLLRQIASYGRGYTYLLSRAGVTGAENRAALPLNHLVAKLKEYNAAPPLQGFGISAPDQVKAAIDAGAAGAISGSAIVKIIEQHINEPEKMLAALKVFVQPMKAATRS [E49P] | 0 | 76 | -3.35 | 78.5 |
| MERYESLFAQLKERKEGAFVPFVTLGDPGIEQSLKIIDTLIEAGADALGLGIPFSDPLADGPTIQNATLRAFAAGVTPAQCFEMLALIRQKHPTIPIGLLMYANLVFNKGIDEFYAQCEKVGVDSVLVADVPVEESAPFRQAALRHNVAPIFICPPNADDDLLRQIASYGRGYTYLLSRAGVTGAENRAALPLNHLVAKLKEYNAAPPLQGFGISAPDQVKAAIDAGAAGAISGSAIVKIIEQHINEPEKMLAALKVFVQPMKAATRS [E49G] | -0.335 | 76.3 | -2.51 | 77.7 |
| MERYESLFAQLKERKEGAFVPFVTLGDPGIEQSLKIIDTLIEAGADALLLGIPFSDPLADGPTIQNATLRAFAAGVTPAQCFEMLALIRQKHPTIPIGLLMYANLVFNKGIDEFYAQCEKVGVDSVLVADVPVEESAPFRQAALRHNVAPIFICPPNADDDLLRQIASYGRGYTYLLSRAGVTGAENRAALPLNHLVAKLKEYNAAPPLQGFGISAPDQVKAAIDAGAAGAISGSAIVKIIEQHINEPEKMLAALKVFVQPMKAATRS [E49L] | -1.84 | 77.8 | -4.35 | 79.5 |
| MERYESLFAQLKERKEGAFVPFVTLGDPGIEQSLKIIDTLIEAGADALQLGIPFSDPLADGPTIQNATLRAFAAGVTPAQCFEMLALIRQKHPTIPIGLLMYANLVFNKGIDEFYAQCEKVGVDSVLVADVPVEESAPFRQAALRHNVAPIFICPPNADDDLLRQIASYGRGYTYLLSRAGVTGAENRAALPLNHLVAKLKEYNAAPPLQGFGISAPDQVKAAIDAGAAGAISGSAIVKIIEQHINEPEKMLAALKVFVQPMKAATRS [E49Q] | 0.962 | 75 |  |  |
| MERYESLFAQLKERKEGAFVPFVTLGDPGIEQSLKIIDTLIEAGADALDLGIPFSDPLADGPTIQNATLRAFAAGVTPAQCFEMLALIRQKHPTIPIGLLMYANLVFNKGIDEFYAQCEKVGVDSVLVADVPVEESAPFRQAALRHNVAPIFICPPNADDDLLRQIASYGRGYTYLLSRAGVTGAENRAALPLNHLVAKLKEYNAAPPLQGFGISAPDQVKAAIDAGAAGAISGSAIVKIIEQHINEPEKMLAALKVFVQPMKAATRS [E49D] | 3.35 | 72.6 | 0.126 | 75.1 |
| MERYESLFAQLKERKEGAFVPFVTLGDPGIEQSLKIIDTLIEAGADALALGIPFSDPLADGPTIQNATLRAFAAGVTPAQCFEMLALIRQKHPTIPIGLLMYANLVFNKGIDEFYAQCEKVGVDSVLVADVPVEESAPFRQAALRHNVAPIFICPPNADDDLLRQIASYGRGYTYLLSRAGVTGAENRAALPLNHLVAKLKEYNAAPPLQGFGISAPDQVKAAIDAGAAGAISGSAIVKIIEQHINEPEKMLAALKVFVQPMKAATRS [E49A] | 0.335 | 75.6 | -2.47 | 77.7 |
| MERYESLFAQLKERKEGAFVPFVTLGDPGIEQSLKIIDTLIEAGADALMLGIPFSDPLADGPTIQNATLRAFAAGVTPAQCFEMLALIRQKHPTIPIGLLMYANLVFNKGIDEFYAQCEKVGVDSVLVADVPVEESAPFRQAALRHNVAPIFICPPNADDDLLRQIASYGRGYTYLLSRAGVTGAENRAALPLNHLVAKLKEYNAAPPLQGFGISAPDQVKAAIDAGAAGAISGSAIVKIIEQHINEPEKMLAALKVFVQPMKAATRS [E49M] | 0.209 | 75.8 | -2.18 | 77.4 |
| MERYESLFAQLKERKEGAFVPFVTLGDPGIEQSLKIIDTLIEAGADALFLGIPFSDPLADGPTIQNATLRAFAAGVTPAQCFEMLALIRQKHPTIPIGLLMYANLVFNKGIDEFYAQCEKVGVDSVLVADVPVEESAPFRQAALRHNVAPIFICPPNADDDLLRQIASYGRGYTYLLSRAGVTGAENRAALPLNHLVAKLKEYNAAPPLQGFGISAPDQVKAAIDAGAAGAISGSAIVKIIEQHINEPEKMLAALKVFVQPMKAATRS [E49F] | 3.6 | 72.4 |  |  |
| MERYESLFAQLKERKEGAFVPFVTLGDPGIEQSLKIIDTLIEAGADALILGIPFSDPLADGPTIQNATLRAFAAGVTPAQCFEMLALIRQKHPTIPIGLLMYANLVFNKGIDEFYAQCEKVGVDSVLVADVPVEESAPFRQAALRHNVAPIFICPPNADDDLLRQIASYGRGYTYLLSRAGVTGAENRAALPLNHLVAKLKEYNAAPPLQGFGISAPDQVKAAIDAGAAGAISGSAIVKIIEQHINEPEKMLAALKVFVQPMKAATRS [E49I] | -1.92 | 77.9 | -5.19 | 80.4 |
| MERYESLFAQLKERKEGAFVPFVTLGDPGIEQSLKIIDTLIEAGADALKLGIPFSDPLADGPTIQNATLRAFAAGVTPAQCFEMLALIRQKHPTIPIGLLMYANLVFNKGIDEFYAQCEKVGVDSVLVADVPVEESAPFRQAALRHNVAPIFICPPNADDDLLRQIASYGRGYTYLLSRAGVTGAENRAALPLNHLVAKLKEYNAAPPLQGFGISAPDQVKAAIDAGAAGAISGSAIVKIIEQHINEPEKMLAALKVFVQPMKAATRS [E49K] | -0.837 | 75.1 | -1.63 | 76.8 |
| MERYESLFAQLKERKEGAFVPFVTLGDPGIEQSLKIIDTLIEAGADALHLGIPFSDPLADGPTIQNATLRAFAAGVTPAQCFEMLALIRQKHPTIPIGLLMYANLVFNKGIDEFYAQCEKVGVDSVLVADVPVEESAPFRQAALRHNVAPIFICPPNADDDLLRQIASYGRGYTYLLSRAGVTGAENRAALPLNHLVAKLKEYNAAPPLQGFGISAPDQVKAAIDAGAAGAISGSAIVKIIEQHINEPEKMLAALKVFVQPMKAATRS [E49H] | -1.38 | 77.4 | -2.8 | 78 |
